The values that follow come from patent US20250115664A1 (Bristol-Myers Squibb, published 2025).

Assay [1] concerns the target T1, human TIM3 on cells (transfected CHO cells, activated human T cells, Th1 cells, TILs) (human, UniProt Q8TDQ0 22-300).
T1 construct: also called hTIM3
As to the kind of experiment: flow cytometry, human TIM3 positive cells (activated human T cells per paragraph 648), GMFI (PE); EC50 unit inferred, unit taken from the axis label ug/mL. On the technique in general: In flow cytometry, cells or beads pass a laser one at a time.

For assay [2], the target named is T2, cynomolgus TIM3 on cells (transfected CHO cells, activated cyno T cells, cyno spleen) (cynomolgus).
T2 construct: also called cyno TIM3
T2 chain: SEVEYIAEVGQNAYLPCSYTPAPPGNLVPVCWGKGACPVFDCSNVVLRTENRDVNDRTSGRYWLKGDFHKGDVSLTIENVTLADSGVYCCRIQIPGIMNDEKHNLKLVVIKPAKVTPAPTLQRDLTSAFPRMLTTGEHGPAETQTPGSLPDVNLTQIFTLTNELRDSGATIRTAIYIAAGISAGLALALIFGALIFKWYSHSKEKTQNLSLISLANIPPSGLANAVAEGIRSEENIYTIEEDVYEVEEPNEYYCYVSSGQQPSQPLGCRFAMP
The assay is described as follows: saturation binding of 125I-labeled antibody to CHO cells with cyno TIM3 (CHOcyno TIM3 25K), table row Kd, column Total; the cell has no unit, nM is taken from the concentration axis.

Assay [3] deals with T1, human TIM3 on cells (transfected CHO …). As to the kind of experiment: saturation binding of 125I-labeled antibody to CHO cells with human TIM3 (CHOhu TIM3 25K), table row Kd, column Specific Binding; the cell has no unit, nM is taken from the concentration axis and the box below.
The target is the same in assay [4]. As to the kind of experiment: saturation binding of 125I-labeled antibody to CHO cells with human TIM3 (CHOhu TIM3 25K), table row Kd, column Total; the cell has no unit, nM is taken from the concentration axis.
Assay [5] has as its target T3, Human TIM3-IgV (Example 22) (human, UniProt Q8TDQ0 22-130).
T3 construct: also called hTim3-IgV; hTIM3-IgV
The assay is described as follows: SPR Biacore T200, 37 C; antibody captured on anti-hFc chip, TIM3 protein as analyte, single cycle kinetics, 1:1 model.

Residue numbers refer to the chain shown, from its start. Names and notes keep the numbering of the source.

B1: anti-TIM3 monoclonal antibody 13A3 (antibody, V domains shown)
VH: QLQLQESGPGLVKPSETLSLTCTVSGGSISSRSYYWGWIRQPPGKGLEWIGSIYYSGFTYYNPSLKSRVTISVDTSKNQFSLKLSSVTAADTAVYYCATGGPYGDYAHWFDPWGQGTLVTVSS
VL: not shown
notes: also called 13A3-g4
For orientation: EC50 means the concentration giving half of the maximal effect. Read a low EC50 as higher potency in that assay. B1: the concentration for a half-maximal effect (EC50) in assay [1] was 0.0116 µg/mL.

B2: TIM3.18·IgG1.3 (antibody, V domains shown)
VH: B1 VH with N62Q, D111E
VL: not shown
notes: also called TIM3.18 (13A3) IgG1.3f (N60Q/D101E)
As usually defined, the Kd is the concentration at which binding is half-saturated. Low readings indicate tighter binding, high ones weaker binding. For B2, the figures for the dissociation constant Kd in assay [2], in assay [3] and in assay [4] were 0.581 nM, 0.262 nM and 0.278 nM, respectively.

B3: Tim3.18 (13A3 VH-N60Q-D101E), constant region not stated (antibody, V domains shown)
VH: B1 VH with N62Q, D111E
VL: not shown
On to B3, for which the dissociation constant (Kd) in assay [5] was 7.1 nM.

B4: anti-TIM3 monoclonal antibody 14H7 (antibody, V domains shown)
VH: QVHLVESGGGLVKPGGSLRLSCTAFSDYYMSWIRQAPGKGLEWLSYISNSGSIIYYADSVKGRFTISRDNAKNSVYLQMNSLRAEDTAVYYCARGRIGFFDYWGPGTLVTVSS
VL: not shown
B4: the EC50 in assay [1] was determined as 0.0139 µg/mL.

B5: TIM3.24 (14H7) (antibody, V domains shown)
VH: B4 VH
VL: not shown
notes: also called 14H7/TIM3.24
The koff is the rate constant with which the complex falls apart. A lower koff goes with slow dissociation. In general, kon refers to a measure of how fast the partners come together. A higher kon goes with fast association. On to B5, for which, in assay [5], binding was characterised by a dissociation constant (Kd) of 14 nM, the koff came out at 0.011 s⁻¹ and the on-rate (kon) was 780000 M⁻¹ s⁻¹.

B6: anti-TIM3 monoclonal antibody 23B3 (antibody, V domains shown)
VH: QVQLVGSGGGLVKPGGSLRLSCAASGFTFSDYYMSWIRQAPGKGLEWVSFISGSGSIIYYADSVKGRFTISRDNAKNSLDLQMNSLRAEDTAVYYCARDGMVRGMNFYGMDVWGQGTTVTVSS
VL: not shown
The molecule B6 gave a half-maximal effective concentration (EC50) in assay [1] of 0.0229 µg/mL.

B7: TIM3.25 (23B3 VH-G6E-D79Y) (antibody, V domains shown)
VH: B6 VH with G6E, D80Y
VL: not shown
In assay [5], B7 had a Kd of 2.2 nM, a dissociation rate constant (koff) of 0.0013 s⁻¹ and a kon of 600000 M⁻¹ s⁻¹.
